Molecular target: DNA polymerase alpha catalytic core (p180 core) (human, UniProt P09884 335-1257)
Assay: X-ray crystallography

Chain of DNA polymerase alpha catalytic core (p180 core) (P09884 335-1257): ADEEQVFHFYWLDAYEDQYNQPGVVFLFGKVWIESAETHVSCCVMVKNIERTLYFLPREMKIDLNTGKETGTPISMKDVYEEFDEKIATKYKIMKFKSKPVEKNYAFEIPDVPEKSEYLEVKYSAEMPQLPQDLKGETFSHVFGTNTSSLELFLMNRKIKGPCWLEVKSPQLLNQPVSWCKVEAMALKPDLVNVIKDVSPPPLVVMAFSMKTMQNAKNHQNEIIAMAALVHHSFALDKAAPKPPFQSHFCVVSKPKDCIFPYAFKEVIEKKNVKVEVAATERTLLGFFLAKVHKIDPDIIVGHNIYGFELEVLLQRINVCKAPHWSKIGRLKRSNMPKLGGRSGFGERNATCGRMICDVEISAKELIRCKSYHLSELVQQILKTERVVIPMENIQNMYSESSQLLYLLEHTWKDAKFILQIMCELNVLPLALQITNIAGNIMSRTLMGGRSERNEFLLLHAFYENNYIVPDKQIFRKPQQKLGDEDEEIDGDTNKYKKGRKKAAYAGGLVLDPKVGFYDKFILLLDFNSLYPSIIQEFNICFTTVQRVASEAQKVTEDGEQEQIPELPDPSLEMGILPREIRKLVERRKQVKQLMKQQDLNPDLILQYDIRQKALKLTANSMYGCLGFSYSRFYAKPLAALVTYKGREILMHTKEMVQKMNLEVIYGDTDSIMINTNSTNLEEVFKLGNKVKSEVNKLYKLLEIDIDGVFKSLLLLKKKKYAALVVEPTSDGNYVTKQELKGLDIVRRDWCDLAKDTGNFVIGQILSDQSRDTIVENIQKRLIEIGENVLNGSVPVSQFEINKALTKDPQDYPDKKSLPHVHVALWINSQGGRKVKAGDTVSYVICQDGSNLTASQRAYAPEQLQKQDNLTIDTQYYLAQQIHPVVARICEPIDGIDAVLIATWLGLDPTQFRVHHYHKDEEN

B1: RNA-primed DNA template (DNA:RNA)
DNA: ATTACTATAGGCGCTCCAGGC
RNA: GCCUGGAGCGC
modifications: primer strand is RNA with a 3'-terminal dideoxycytidine (ddC)
binding result: binds

— PMC4267640
